Substrate: Nc1ncnc2c1ncn2[C@@H]1O[C@H](COP(=O)(O)OP(=O)(O)OP(=O)(O)O)[C@@H](O)[C@H]1O
Experiment: purified protein
Conditions: phosphate donor; activity depends on divalent ions

B1: SGK196dTM (Homo sapiens) (protein)
chain: APRQSTVDPTHCPYGHFRIGQMKNCSPWLSCEELRTEVRQLKRVGEGAVKRVFLSEWKEHKVALSQLTSLEMKDDFLHGLQMLKSLQGTHVVTLLGYCEDDNTMLTEYHPLGSLSNLEETLNLSKYQNVNTWQHRLELAMDYVSIINYLHHSPVGTRVMCDSNDLPKTLSQYLLTSNFSILANDLDALPLVNHSSGMLVKCGHRELHGDFVAPEQLWPYGEDVPFHDDLMPSYDEKIDIWKIPDISSFLLGHIEGSDMVRFHLFDIHKACKSQTPSERPTAQDVLETYQKVLDTLRDAMMSQAREML
  Km: 4.1 ± 1.4 µM

Reference: publication PMC3848040
